# Measured values reported in patent publication US20100316616A1.
# Target: His-tagged mouse Wnt3a (mouse) (UniProt P27467)
# Test: cell-based or functional assay
# Chain of UniProt P27467 (P27467 19-352): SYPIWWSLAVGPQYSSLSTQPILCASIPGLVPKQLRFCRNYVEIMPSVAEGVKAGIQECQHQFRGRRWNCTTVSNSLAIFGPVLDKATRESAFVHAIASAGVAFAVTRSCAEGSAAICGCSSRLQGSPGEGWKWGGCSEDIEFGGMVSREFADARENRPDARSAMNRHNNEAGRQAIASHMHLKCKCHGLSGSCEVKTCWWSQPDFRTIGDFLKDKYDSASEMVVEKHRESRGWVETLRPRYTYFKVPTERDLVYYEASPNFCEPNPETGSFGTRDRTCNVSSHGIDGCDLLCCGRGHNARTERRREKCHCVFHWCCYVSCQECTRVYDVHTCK
row,"decrease in Wnt3a-induced CRT (beta-catenin-TCF-regulated transcription), TCF-responsive reporter in HEK293T and Huh-7 cells",Substance
1,> 80%,human FZC18 (from UniProt P39060 216-450)
2,> 80%,human V3Nter (from UniProt P39060 24-497)
